Assay results taken from patent US20260115290A1.

Biological target: HLA-DR on K562-CD19-HLA-DR cells (alpha chain UniProtKB-P01903, beta chain UniProtKB-P04229) (human) (UniProt P01903)
Test: cell-based or functional assay

CD107a+ population, single against dual CAR-NK cells, K562-CD19-HLA-DR target cells: 2 to 3 fold
IFN-γ production (ELISA), dual against single CAR-NK cells with K562-CD19-HLA-DR cells: 70 % reduction
Substance: anti-HLA-DR iCAR (FLAG tag, scFv of antibody 1D09C3, PD-1 hinge, transmembrane and intracellular domains) (from UniProt Q15116 145-288) (receptor)
